The values below come from publication PMC9856783, “Identification and Characterization of Aptamers Targeting Ovarian Cancer Biomarker Human Epididymis Protein 4 for the Application in Urine”.

The target of series [1] is T1, Human epididymis protein 4 (HE4) (human, UniProt Q14508 31-124).
T1 sequence: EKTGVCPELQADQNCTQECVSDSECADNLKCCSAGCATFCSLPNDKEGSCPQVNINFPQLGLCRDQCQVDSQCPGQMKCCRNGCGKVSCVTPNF
Put plainly: thermofluorimetric analysis (SYBR Gold); 1/125 artificial urine; HE4 up to 800 nM; 100 nM DNA, 0-800 nM HE4, 1/125 diluted artificial urine, 1x SYBR Gold, protein buffer (10.1 mM Na2HPO4, 137 mM NaCl, 2.7 mM KCl, 1.8 mM KH2PO4, 1 mM MgCl2); pH. The settings on record: protein: commercial; tags: 6xHis; label: SYBR Gold dye (non-covalent).

Series [2] addresses T1, Human epididymis protein 4 (HE4). Put plainly: thermofluorimetric analysis (SYBR Gold); preliminary data, urine; 100 nM DNA, 0-800 nM HE4, 1/125 diluted artificial urine, 1x SYBR Gold, protein buffer (10.1 mM Na2HPO4, 137 mM NaCl, 2.7 mM KCl, 1.8 mM KH2PO4, 1 mM MgCl2); pH. The settings on record: protein: commercial; tags: 6xHis; label: SYBR Gold dye (non-covalent).

B1: Scramble aptamer DNA (ssDNA)
DNA: ATCGCGTCCGTCAATTACCTACGCTGCACCACTTATGAGCCGGTATCGCCATCCGTCAACTCACGCCTCC
In the case of B1, the binding result in series [1] is listed as “no binding”.

B2: AHE2 (ssDNA)
DNA: TCGCACATTCCGCTTCTACCGCCAACATCGTACTCCATCTGCCACCCCCACGTAAGTCCGTGTGTGCGAA
On to B2, for which the binding result in series [2] was “no binding”.
